Assay results as given in patent US20160024210A1 (AstraZeneca / MedImmune, published 2016).

T1: human H7CR (B7-H7 counter-receptor) (human, UniProt Q96BF3 23-282)
T1 construct: Used for H7CR on CHO.hH7CR transfectants, human T cells and tonsil tissue; also called B7-H7CR; CD28H
T1 sequence: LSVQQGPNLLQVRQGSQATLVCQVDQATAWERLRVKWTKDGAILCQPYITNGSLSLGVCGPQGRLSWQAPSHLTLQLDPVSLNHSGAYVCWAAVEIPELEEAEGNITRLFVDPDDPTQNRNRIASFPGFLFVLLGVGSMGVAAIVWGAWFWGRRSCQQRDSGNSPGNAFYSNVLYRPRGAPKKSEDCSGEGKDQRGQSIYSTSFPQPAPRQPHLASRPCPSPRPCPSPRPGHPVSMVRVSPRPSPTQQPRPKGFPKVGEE

T2: H7CR-GFP fusion protein on transfected CHO cells (Homo sapiens (Human), UniProt Q96BF3 23-282)
T2 construct: not shown: GFP part
T2 sequence: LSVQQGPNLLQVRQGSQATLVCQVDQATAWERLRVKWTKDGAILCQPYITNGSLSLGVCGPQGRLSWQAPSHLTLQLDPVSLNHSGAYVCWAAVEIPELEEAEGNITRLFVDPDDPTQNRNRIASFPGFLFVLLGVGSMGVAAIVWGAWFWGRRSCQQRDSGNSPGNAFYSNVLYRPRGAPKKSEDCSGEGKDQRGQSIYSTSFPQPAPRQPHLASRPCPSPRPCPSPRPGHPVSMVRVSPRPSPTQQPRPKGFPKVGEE


Columns and labels:
[1] = biological target: T1, human H7CR (B7-H7 counter-receptor); test: binding to human H7CR as endogenously expressed on the surface of a cell
[2] = biological target: T2, H7CR-GFP fusion protein on transfected …; test: flow cytometry, 5 µg/ml variant on H7CR-GFP transfected CHO cells, anti-hIg PE secondary antibody [row HC2-2, column LC1-2]
Experimental: (§1) 5 μg/ml antibodies from thirty-six variants were incubated with H7CR-GFP fusion protein transfected CHO cells for 30 min at room temperature. Cells were then washed twice with 2 ml flow cytometry buffer, and resuspended in 100 μl flow cytometry buffer. 1 μl anti-hIg PE secondary antibody (Biolegend) was added and incubated with the cells for 15 mins Samples were then washed and resuspended in 100 μl flow cytometry buffer. Flow Cytometry data was acquired using BD Canto (BD Biosciences) in plate format and analyzed by FlowJo software.

[3] = biological target: T2, H7CR-GFP fusion protein on transfected …; test: flow cytometry, 5 µg/ml variant on H7CR-GFP transfected CHO cells, anti-hIg PE secondary antibody [row HC2-2, column LC2-2]
Experimental: as §1

[4] = biological target: T2, H7CR-GFP fusion protein on transfected …; test: flow cytometry, 5 µg/ml variant on H7CR-GFP transfected CHO cells, anti-hIg PE secondary antibody [row HC2-2, column LC2-3]
Experimental: as §1

[5] = biological target: T2, H7CR-GFP fusion protein on transfected …; test: flow cytometry, 5 µg/ml variant on H7CR-GFP transfected CHO cells, anti-hIg PE secondary antibody [row HC2-2, column LC1-1]
Experimental: as §1

[6] = biological target: T2, H7CR-GFP fusion protein on transfected …; test: flow cytometry, 5 µg/ml variant on H7CR-GFP transfected CHO cells, anti-hIg PE secondary antibody [row HC2-1, column LC2-3]
Experimental: as §1

[7] = biological target: T2, H7CR-GFP fusion protein on transfected …; test: flow cytometry, 5 µg/ml variant on H7CR-GFP transfected CHO cells, anti-hIg PE secondary antibody [row HC2-2, column LC2-1]
Experimental: as §1

[8] = biological target: T2, H7CR-GFP fusion protein on transfected …; test: flow cytometry, 5 µg/ml variant on H7CR-GFP transfected CHO cells, anti-hIg PE secondary antibody [row HC2-2, column LC1-3]
Experimental: as §1

Row | Binder | binding result [1] | further results
1 | 4.5 humanized variant 26 (HC2-2 / LC1-2) (antibody, V domains shown, Variable domains only; detected with anti-hIg secondary; also called VH2B / VL1B) VH: QITLKESGPTLVKPTQTLTLTCTVSGFSITTGGYYWNWIRQPPGKKLEWLALIYTSGRTSYNPSLKSRLTITKDTSKNQVVLTMTNMDPVDTATYYCADMADKGGWFAYWGQGTLVTVSS VL: DIVMTQSPDSLAVSLGERATINCKSSQSLFSSNTKRNYLNWYQQKPGQPPKLLIYHASTRLSGVPDRFSGSGSGTDFTLTISSLQAEDVADYFCQQHYETPLTFGDGTRLEIK | binds | binding result [2]: binds
2 | 4.5 humanized variant 29 (HC2-2 / LC2-2) (antibody, V domains shown, Variable domains only; detected with anti-hIg secondary; also called VH2B / VL2B) VH: QITLKESGPTLVKPTQTLTLTCTVSGFSITTGGYYWNWIRQPPGKKLEWLALIYTSGRTSYNPSLKSRLTITKDTSKNQVVLTMTNMDPVDTATYYCADMADKGGWFAYWGQGTLVTVSS VL: DIVMTQTPLSLPVTPGEPASISCRSSQSLFSSNTKRNYLNWYLQKPGQSPKLLIYHASTRLSGVPDRFSGSGSGTDFTLKISRVEAEDVGDYFCQQHYETPLTFGDGTRLEIK | binds | binding result [3]: binds
3 | 4.5 humanized variant 30 (HC2-2 / LC2-3) (antibody, V domains shown, Variable domains only; detected with anti-hIg secondary; also called VH2B / VL2C) VH: QITLKESGPTLVKPTQTLTLTCTVSGFSITTGGYYWNWIRQPPGKKLEWLALIYTSGRTSYNPSLKSRLTITKDTSKNQVVLTMTNMDPVDTATYYCADMADKGGWFAYWGQGTLVTVSS VL: DIVMTQTPSSLPVTPGEPASISCLSSQSLFSSNTKRNYLNWYLQKPGQSPKLLIYHASTRLSGVPDRFSGSGSGTDFTLKISRVEAEDVGDYFCQQHYETPLTFGDGTRLEIK | binds | binding result [4]: binds
4 | 4.5 humanized variant 25 (HC2-2 / LC1-1) (antibody, V domains shown, Variable domains only; detected with anti-hIg secondary; also called VH2B / VL1A) VH: QITLKESGPTLVKPTQTLTLTCTVSGFSITTGGYYWNWIRQPPGKKLEWLALIYTSGRTSYNPSLKSRLTITKDTSKNQVVLTMTNMDPVDTATYYCADMADKGGWFAYWGQGTLVTVSS VL: DIVMTQSPDSLAVSLGERATINCKSSQSLFSSNTKRNYLAWYQQKPGQPPKLLIYHASTRESGVPDRFSGSGSGTDFTLTISSLQAEDVAVYYCQQHYETPLTFGQGTRLEIK | binds | binding result [5]: binds
5 | 4.5 humanized variant 24 (HC2-1 / LC2-3) (antibody, V domains shown, Variable domains only; detected with anti-hIg secondary; also called VH2A / VL2C) VH: QITLKESGPTLVKPTQTLTLTCTFSGFSITTGGYYVGWIRQPPGKALEWLALIYTSGRTRYSPSLKSRLTITKDTSKNQVVLTMTNMDPVDTATYYCADMADKGGWFAYWGQGTLVTVSS VL: DIVMTQTPSSLPVTPGEPASISCLSSQSLFSSNTKRNYLNWYLQKPGQSPKLLIYHASTRLSGVPDRFSGSGSGTDFTLKISRVEAEDVGDYFCQQHYETPLTFGDGTRLEIK | binds | binding result [6]: binds
6 | 4.5 humanized variant 28 (HC2-2 / LC2-1) (antibody, V domains shown, Variable domains only; detected with anti-hIg secondary; also called VH2B / VL2A) VH: QITLKESGPTLVKPTQTLTLTCTVSGFSITTGGYYWNWIRQPPGKKLEWLALIYTSGRTSYNPSLKSRLTITKDTSKNQVVLTMTNMDPVDTATYYCADMADKGGWFAYWGQGTLVTVSS VL: DIVMTQTPLSLPVTPGEPASISCRSSQSLFSSNTKRNYLDWYLQKPGQSPQLLIYHASYRASGVPDRFSGSGSGTDFTLKISRVEAEDVGVYYCQQHYETPLTFGQGTRLEIK | binds | binding result [7]: binds
7 | 4.5 humanized variant 27 (HC2-2 / LC1-3) (antibody, V domains shown, Variable domains only; detected with anti-hIg secondary; also called VH2B / VL1C) VH: QITLKESGPTLVKPTQTLTLTCTVSGFSITTGGYYWNWIRQPPGKKLEWLALIYTSGRTSYNPSLKSRLTITKDTSKNQVVLTMTNMDPVDTATYYCADMADKGGWFAYWGQGTLVTVSS VL: DIVMTQSPDSLAVSLGERATINCLSSQSLFSSNTKRNYLNWYQQKPGQSPKLLIYHASTRLSGVPDRFSGSGSGTDFTLTISSLQAEDVADYFCQQHYETPLTFGDGTRLEIK | binds | binding result [8]: binds
